Experimental findings from patent US20160108097A1 are described below.

What all share (test): cell-based or functional assay
The target of assay [1] is HIV-1 subtype C envelope Du179.14 (HIV-1 subtype C).
The target of assay [2] is HIV-1 subtype C envelope DU151.2 (HIV-1 subtype C).
In assay [3] the target is HIV-1 subtype A envelope Q23.17 (HIV-1 subtype A).
For assay [4], the target named is HIV-1 subtype B envelope QH0692.42 (HIV-1 subtype B).
For assay [5], the target named is HIV-1 subtype C envelope Du156.12 (HIV-1 subtype C).
Assay [6] deals with HIV-1 subtype C envelope CAP206.8 (HIV-1 subtype C).
Assay [7] addresses GRFT-resistant envelope Du156R18 (R).
Assay [8] addresses HIV-1 subtype B envelope CAAN5342.A2 (HIV-1 subtype B).
The target of assay [9] is HIV-1 subtype A envelope Q168.a2 (HIV-1 subtype A).
Assay [10] addresses GRFT-resistant envelope Du179 GRFT c17 (R).
Assay [11] has as its target HIV-1 subtype B envelope JR-FL (HIV-1 subtype B).
Assay [12] has as its target HIV-1 subtype C envelope COT6.15 (HIV-1 subtype C).
Assay [13] deals with Env of HIV-1RF virus (HIV-1 RF).
Assay [14] addresses HIV-1 subtype B envelope PVO.4 (HIV-1 subtype B).

Sequence of griffithsin (GRFT), native domain-swapped dimer (P84801 whole entry X31A, the tested form may be a part): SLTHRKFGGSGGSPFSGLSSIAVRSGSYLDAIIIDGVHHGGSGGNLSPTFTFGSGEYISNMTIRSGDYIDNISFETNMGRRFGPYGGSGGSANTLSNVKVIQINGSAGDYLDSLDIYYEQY

With “griffithsin (GRFT), native domain-swapped dimer (from UniProt P84801 1-121)”, the IC50 (pseudovirus neutralization, JC53bl-13 cells) in assay [1] amounted to 0.606 nM; in assay [2] it was 1.49 nM; in assay [3], 1.19 nM; in assay [4] it was 0.0473 nM; in [5], 0.0324 nM; in [6] it was 2.14 nM. Also, the IC50 (pseudovirus neutralization, JC53bl-13 cells) in assay [7] is 9.14 nM; in assay [8] it was 7.34 nM; in [9] it was 3.8 nM; in assay [11], 0.922 nM; in assay [12], 0.734 nM; in [14], 0.037 nM. The fold reduction in activity between the WT (Du156.12) and R viruses in assay [7] was determined as 282 fold. In [10], the fold reduction in activity between the WT (Du179.14) and R viruses is more than 82 fold. The substance also had an Anti-HIV EC50 (XTT cytopathicity assay, HIV-1RF, CEM-SS cells) in [13] of 0.0138 nM.
